Assay results from patent US20240026407A1, “MODIFICATION OF SAPONINS” (GLAXOSMITHKLINE BIOLOGICALS SA, priority 2020, published 2024).

B1: 1051 (protein)
chain: MDGGPLFLSWQCTGGLRQTAYEIHLTADDALVWESGKVATQSMHADAPAVEGARVRGSWKVRLWDENNCPGPWSGARFETGLSTGEWQGLWVAPETAPLDIPGDDAINAFARPNWERKQAEKEAAGKGAAEPYQPHRPASYLRKTFTAPSGRGRLYITAKGLYVAWLNGVRVGDMVLAPGSFTADKHLGAQTYDVTALLREGENELLIALGDGWYRSTSGVDGDRNLFGDTLGVLFQLEVDGKVVCVSDDTMQATQQGPIRQNDLQQGEVYDARLEGLLSGWHEVQTYRDALPVTGMNTVPIREREAFPGRLFTAPNGETVLDFGQNIAGYVEMTLTAHAGQKVLLTCGETLDENGNFTQENFQDRSRHNEGGTAQMLELICKEGVNHWKPSFTIMGFQYAKVETDADLTGAVFTAHAVYSDMAVTGSFTCGNKAVNRLVANSIWSQKGNFCDIPTDCPTRERAGWTGDMGVFIETGLTLMDCYPVVAKWLKECRLNQYPDGRMANIAPPNSRPGYMTPMLCMSAGWGDAAILVPYALYKRTGDRRILADNYEMMQRWYAFLLGRAQQTTEEQQSGEYAKYTVLNGLDYGEWCEPGVTPMQAMANPRKSVGTAYLAYSGRLLAEIAAVLGRQEEADAYRATADKAVKAYRAAFTEDGVIHSDRQCEYVRAIAFALLGEEESRAAATTLNQMVVDNGCHLNTGFLSTPFLCGVLAQYGYIDTAYRLLLQPEAPGWLYEVNKGANTVWETWTGIDAEGKPHESLNHYSYGAICGWLFGGVCGIHFTDGQLTIAPTPHKALGYAKAVYDSPAGRIESGWRYEGDTVTYEFTIPTNITAHIHLPDGRTRMLSAGTHRL
modifications: Subdoligranulum variabile
B2: 1013 (protein, listed as Chloroflexus aurantiacus)
chain: MSYEQLSTSQSQVSRLIVRVEHYQSTLGIGNPCPRLSWIIETNATNWLQTAYEIECYTKDGRVRGRTGWIHSPESVLVPWPFEPLTSREQVLVRVRVRDNKGDISPWSEMLPIEAGLLKVGDWSARFITPDWDDDILKPQPCPMLRHEFRVDNDVIQARLYITSLGVYEAQINGVVVGDQVLAPGWTVYDRRLRYQTFDVTMHLREGINAIGVILGDGWFRGRLGFGGGRRNIYGNRLAVLAQLEITYRDGSTQQVCTDQTWRSTTGPILASDIYDGEIYDARLELPNWSKPGFADHQWSGVRLLEWDFSTLVAPISPPIRRIEMVLPVAIFSSPSGRTIVDFGQNLVGRVRLTVSGPPGQMITVRHAEVLEGGELSTRPLRFAAATDRYILRGDGTEVWEPRFTFHGFRYAEIDGWPGELRTTDIVAVVIHSDMERIGWFTCSDQLLNRFHENVVWSMRGNFLDVPTDCPQRDERLGWTGDIQVFAPTAVFLYDVAGLLQSWLIDLAIEQEKLGGAVPHVVPNVLGPSAAGAAAWGDAATVVPWVLFQRYGDKRVLETQYKSMRSWVDYIATKAGHTYLWDRGFQFGDWLDPTAPPDKPGQARTDKAIVASAYFIFSATLVAKAAHVLGYDADADFYADLAHKARFAFAKEYITPAGRLMCDTETAYALALVFDLFPTDTQRRYAGERLAALVRDSGYHIRTGFVGTPLICDALCSVGHCRVAYRLLMQRECPSWLYPVTMGATTIWERWDSMLPDGSINPGEMTSFNHYALGAVADWMHRTIGGLIPVEPGYRRIEFRPQPGGEIVYARVSHRTPYGLAECFWRIEEGVFYLRVVVPPNTTAQVFLPGRDDQPLDVGSGIWQWSIPCQDTATRGSYTVDDLVDEIIDDEVAREAVNQVLSQVDAWRLFGNLLLNERSASLREAIQALPNSEIVIERLNALLTRIPKKDGI
B3: 1030 (protein, listed as Lactobacillus crispatus)
chain: MKLVRIEVNHMETPIGFNLDNHLHLVGFLDGPVTSKLQRKLIIKAHDKEIVTFDWENADNLIFDFPINLTARTRYEVEMSVKNDREMSTATTYFETGQIDETLKGKWIGTEHKDLHSIILYKKFTTKDVKKARLYISGLGLFEAYLDGNKIGNEFLTPGFTDYNYDLQIESYDLTTELLKSGEHTLAIMLGDGWYRGKLGLKVHGGQPNNYGDQLMAIADLRINDDQQIIVTDKSWQVTTSPITHSGIYYGEDLDDNRQLNELANAIELTSPTKHLVDRQSLPIQRHEQFSVKEIIKTPSGATVLDFGQNMAGWLEFKNTIPKGEKVSIEFGEIMLDGEFYRDNLRSARAQFTYVSDGKEKWVRPHFTYFGFRYVKLNDFEGEIDPNNFRAVALYSNMIETGEIITNNSDVNRLFENVKWGQKSNFIDIPTDCPQRDERLGWTGDAAIFSKTASYNMDTYQFLKKYAYDIAVEQSKNNGFVPLYVPAVDTKDGGKAVWSDAATIIPWIAYKRTGDLAILRQNIGAMMSWVDWIHDRAVSHGQEYLWLGDDQLGDWLALDTEDIMKLKGKTPDDLIASAYYYYSAKLVSQSAETLNMKHEKQYYGQLAKLIKHAFINHFFTKDGLSIADTQTGLALCLSFKLYPANAKDNLINKLVEKVEVNQNHLNTGFVGTPLLLPALTDNGQQDLALRLFLNTDFPSWLFEVKNGATTIWERWNSVDSEGHIAQNGMNSLNHYSSGAVMEWAYEDLLGLKQNGNDAVFKPMLTAKLNQISGQIALPTGIVKVAWHIKSSKLIHLEMDIPYGSHLKLILPKHEQDIPTIFKSGHYELDVEVINPIVEAFDVHTPLAEYRNQTSLTKKLSELVPFWGFLAMPGNMDHFAKYSLLQLSREMRGIGFKPFTQEDIEKINQLFKEYHFKGAEK
B4: 1006 (protein, listed as Geobacillus sp.)
chain: MAAIKATDLRTEGILNPFGLDAERPRLSWSFGQPAGAGSGQSAYRIAVASSEERLKLGEPDVWDSGIVRSCEHVSIPYEGASLMPRRRYYWHVTAWDGQGQPAVSKAAWWETGLLAEAKWSERWIGDAAEAADRGPMIQLRKSFEVKKPVARARAYVTGLGHYELRLNGAKVGDRQLEPGWTNYDKTVLYSVYDVTPGLRQGENAVGVLLGNGFYRVAGGRYAKFKGSFGNPKCLAELVIEYADGTAETIVTDGTWSLSDSPLTFSCIYGGEDYDAGLERTGWDGPGFVEDGDWRRACELEPPPGKLTAQSSPPLAITKRLPARSVSEPRRGVYVYDLGQNFSGWPCIRVSGPNGTRVKLKPAELLTEEGLANQKYSGSPYELNYVLKGEGIEEWHPRFTYYGFRYVQVEGAAPAGEGVEESDLPVLHGLEGHMIGPDVEDAGGFRCSDPLLNRIHEIINWAILSNMKSVFTDCPHREKLGWLEQLHLMGPSVMFNYECEALLEKIMRDMSDAQLPNGMVPTTAPEYVVFEEPWHMFRDAAAWGGSYILLAWEMLRRYGSVGTLERHYEGMGRYVHYLTEASDGFILRGGLGDWYDIGPKGPGFAQNTSVALVETAIFFGLARALGEIALVLGKAEDASAHSRLSESIRTAFHSAFYDTANAMYAEGSDTAIAMPLAIGLAPEELRGVLLDRLVRNIGERGWQTTAGDVGHRYVLSALASGGRSDVVGKMARNPHAPGYAYQVAHGATSLTEAWDGPTVGKSQNHFMLGHLEEWLYASLAGLDYRYRPEVGRYLVKAKPTVVQGVEWAEAWQQLRSGRASVRWELGPSNQMTVRVDIPANSEGLIRIPSSPDTPVLASGPDVAYEGHEDGHAVYRSGPGSYCFTFAANHRTTEMERERM
B5: 1081 (protein)
chain: MKNSNLFAKLLAVVLIFLSNPTLAVEWTAEWIWSKERFTDPNSWVVIRKEVNLESVGQNSTAYISADTKYWLWINGQLVVFEGSYTGGPSPVKPSPRVDFYPIASNKYYDQVDIGRYLKKGKNTIAALAWYYGDNGQKGTYISSNTGGFIFQAHVGDNVIATDSSWKVLPHPAYDKKVIKKSPYRVAAWSVKYDARKDLNDWSNKAWYMPGYDDSDWQTPRIKRQPPRPPFFGLYPSEIPPLNNYGLANCENYPESKFPFISDGKTIKCKLDFNKNFTPYFDIEAKAGQQIHIKSNMRLNTIETFYTTKAGRQQFESYSWLNGRIIEYRIPKGVKVHGLKYRWTGVGTTPGHFEADDAWYSRIWQMAENTLYICARDNFMDTPDRERGLWIGDVADQASYLFYSMDKPGRDLLKKAIKVTLAFSDSESGIFAGLGPGRFRELPAQSLQFIEQGIWHYYYNTGDLETLKFAYPYVHRYLTLWGIKDNGLATFRTGDWKWTDWGPQDTIDYDVIQNALYYSALVSARKMAKAVGDYTHIGLYSHRINSIKQAYQKHYWQNGYFSSNPNKFKDDRANAIAILFGLAKPEQYQQIVDNVLIPNHFASPHFEWMVYNAMAIAGRYEDALQRMKTRYAKQVDNQALSTLAEYLPSGGTENHAWNAPSTVLSQHIAGIAPTSVAWESYQVMPNMAHFKRVKQFVPSVQGDIDFEIQRDQQTVKIEIDSPENTTAIIGVPKQYFAIQTIMVNGKKLWENGQLTASISGIKLAGEDNKYVKFEVQPGHWLVTAQR
modifications: Catenovulum agarivorans
B6: 1014 (protein, listed as Thermoclostridium stercorarium)
chain: MMRVYNLKTNRIKNPMGFVINKPKLSWLVESDTAKHQVAAQVEISADINFENIIFDSGKRTDIDSISYSPQVELKPRTRYYWRVRVWGDDGSEAVSEAAWFETSKMDEPWKAKWITPDFDPSVHPVVFTDFSIERDVADARAYVCGLGLYEMSVNGEKTGDEYLAPGLVAYDKWIPYQTYDITSQLKKGINTAEFLLGNGWYKGRYGLNRKQPFRYGNEFALICEIHITYQDGTADVIYTDTSWKARKSKVIDSGIYDGEIYDDTFCDDAVYPVRIADLDVNKLEPRRSPGIKIKERIKPAEIIRTPEGETVIDMGQNMVGWLEFTNRAPKGAEIMLQFGEVLQDGNFYRDNLRTAKCEFHYISDGKVKKVRPHFTFYGFRYVKLTKWEGEVNPEDFTGLVLYSDLERTGNITTDNSLVNRLFLNALWSQKGNFLDVPTDCPQRDERMGWTGDAQVFSGAAAFNMDVFAFFGKYLYDLKQEQKARGGNVPVVVPAHDVKQNGACGWGDAAVIIPWNMYLHYGDVSILEQQYKSMKGWVDYIKSKDDAAGGRRLWLNDFHYGDCVSLDVEDPFNRFGGTEHAYLASAFYSYSAGIVSKAAKILNKKEDAEYYRKLSEEVKNAIRKEYFTPTGRLAVNTQTAYVIALYMDLVPDEWKERVAFELRKKLKETKYHLRTGFLGTPYLCRVLSEYGSNDIAYRLLTNTDYPGWLYPVTMGATTIWERWNSMLPDGKVSDTGMNSFNHYSYGSIVEWIYRNAAGIQPVEDAPGFRRFRLKPQPHYLLKSLDAEFLSPAEKIISRWNINENGSVSFYFRIPFNTTAELVLPDTEVQDWKEFMSLNVVNILILTCLKDLTRKCTEQILQCGKFMKMRGQKKL

What was measured:
Assay type in all cases: biochemical, Quillaja saponaria
[1] = Experiment 6-1: screening of rhamnosidases for derhamnosylation of saponins in treated bark extract (2%), QS-17 2296 to QS-18 2150 (PAR %); settings: TBE 2%, pH 7.5, 30 degC, 18 h; TIC peak area ratio percent of rhamnosylated starting saponin to derhamnosylated product, LCMS/MS; negative controls 4.876, 5.225
[2] = Experiment 6-1: screening of rhamnosidases for derhamnosylation of saponins in treated bark extract (2%), desglucosyl-QS-17 2134 to QS-21 1988 (PAR %); settings: TBE 2%, pH 7.5, 30 degC, 18 h; TIC peak area ratio percent, LCMS/MS; negative controls 2.719, 2.158
[3] = Experiment 6-1: specificity of rhamnosidases towards other rhamnose residues (C3 saccharide rhamnose, C28 saccharide rhamnose); settings: TBE 2%, pH 7.5, 30 degC, 18 h; LCMS/MS; negative controls 0.18, 0.17
[4] = Experiment 6-1: screening of rhamnosidases for derhamnosylation of saponins in treated bark extract (2%), QS-17 2310 to QS-18 2164 (PAR %); settings: TBE 2%, pH 7.5, 30 degC, 18 h; TIC peak area ratio percent, LCMS/MS; negative controls 3.061, 2.429

| Molecule | QS-17 (PAR %) [1] | Peak75 (PAR %) [2] | ratio PP/QS-21 [3] | Peak57 (PAR %) [4] |
| --- | --- | --- | --- | --- |
| B1 | 5.289% | 2.426% | 0.16 | 2.918% |
| B2 | 5.272% | 2.388% | 0.17 | 2.576% |
| B3 | 5.315% | 2.127% | 0.17 | 3.621% |
| B4 | 5.339% | 2.645% | 0.18 | 3.237% |
| B5 | 5.348% | 2.473% | 0.17 | 2.624% |
| B6 | 5.309% | 2.741% | 0.18 | 3.359% |
